In patent US9688764B2, “Methods of treating breast cancer by administering anti-human prolactin receptor (PRLR) antibodies” (REGENERON PHARMACEUTICALS, INC., priority 2013, dated 2017):
Like-named read-outs stand apart in the source and are kept apart here.

Experiments:
HEK293 (293) cells = test: Cell viability (cell kill) assay; type: cell-based
Outline: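 Anti-PRLR–DM1 ADCs (non-cleavable SMCC linker) or free DM1-SMe, 500 nM to 5 pM for 3 days on parental or hPRLR-overexpressing lines. HEK293: CCK8 OD450; MCF7: Hoechst nuclear counts by imaging.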

[1] = system: HEK293/hPRLR (293/hPRLR) cells; test: Cell viability (cell kill) assay; type: cell-based, human; details: 3 days
Source text: (§1) PRLR-overexpressing cells, including HEK293, PC3, MCF7 and NCI-N87, were generated to assess the ability of anti-PRLR conjugated antibodies to reduce cell viability. For comparative purposes, PC3 and T47D cells with overexpressed ErbB2 were also generated, as well as an MCF7 cell line over-expressing both hPRLR and hErbB2. Briefly, Lipofectamine® 2000-mediated transfection methodology was utilized to generate HEK293 cells expressing human PRLR (HEK293/hPRLR) or human ErbB2 (HEK293/hErbB2). Lipofectamine LTX with Plus Reagent was used to generate PC3 cells expressing human PRLR (PC3/hPRLR) or human ErbB2 (PC3/hErbB2). Lentiviral-mediated transduction was utilized to generate MCF7 cells expressing human PRLR (MCF7/hPRLR), NCI-N87 cells expressing human PRLR (NCI-N87/hPRLR), T47D cells over-expressing human ErbB2 (T47D/hErbB2), and MCF7 cells expressing both human PRLR and human ErbB2 (MCF7/hPRLR/hErbB2). All lines were selected for at least two weeks in complete growth media plus appropriate selection reagents. Stably expressing populations were enriched for PRLR expression via FACS using the anti PRLR antibody Control I.
(§2) Next, the ability of anti-PRLR-DM1 antibody-drug conjugates (i.e., anti-PRLR antibodies conjugated to DM1 via a non-cleavable linker [SMCC]) to reduce cell viability was determined using in vitro cell based assays. Cells were seeded in PDL-coated 96 well plates at 1500 to 10000 cells per well in complete growth media and allowed to grow overnight. For cell viability curves, ADCs or free DM1 (as the methyl disulfide derivative DM1-SMe) were added to the cells at final concentrations ranging from 500 nM to 5 pM and incubated for 3 days. The 293, PC3 and T47D cells were incubated with CCK8 (Dojindo, Rockville, Md.) for the final 1-3 hours and the absorbance at 450 nm (OD450) was determined on a Flexstation3 (Molecular Devices, Sunnyvale, Calif.). MCF7 cells were treated with Hoechst 33342 nuclear stain while being fixed with 4% formaldehyde. Images were acquired on the ImageXpress micro XL (Molecular Devices, Sunnyvale, Calif.) and nuclear counts were determined via Columbus image analysis software (Perkin Elmer, Shelton, Conn.). Background OD450 values (PC3, 293, and T47D) or nuclear counts (MCF7) from digitonin (40 nM) treated cells was subtracted from all wells and viability was expressed as a percentage of the untreated controls. IC50 values were determined from a four-parameter logistic equation over a 10-point response curve (GraphPad Prism).

PC3 cells = test: Cell viability (cell kill) assay; type: cell-based
Outline: (§3)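 PC3 and PC3/hPRLR (lipofection-generated, FACS-enriched for PRLR) cells exposed 3 days to anti-PRLR ADCs or free DM1-SMe, 500 nM to 5 pM. Viability by CCK8 OD450, digitonin background subtracted, as % of untreated; IC50 from four-parameter fit of 10-point curves.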

PC3/hPRLR cells = test: Cell viability (cell kill) assay; type: cell-based, human
Outline: as §3

MCF7 (MCF7/ATCC) cells = test: Cell viability (cell kill) assay, nuclear counts; type: cell-based
Outline: (§4)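 Anti-PRLR ADCs or free DM1-SMe were added at 500 nM to 5 pM final to cells seeded overnight and were incubated 3 days. MCF7 lines were fixed with 4% formaldehyde plus Hoechst 33342, and nuclei were counted by imaging, with digitonin […] background subtracted. Viability was expressed as % of untreated cells, and IC50 was obtained from a 4-parameter fit of a 10-point curve.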

[2] = system: MCF7/hPRLR (MCF7/PRLR) cells; test: Cell viability (cell kill) assay, nuclear counts; type: cell-based, human
Outline: as §4

T47D cells = test: Cell viability (cell kill) assay; type: cell-based
Outline: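 T47D cells grown overnight, then exposed 3 days to anti-PRLR ADCs (DM1 via non-cleavable SMCC linker, or other maytansinoid toxins) or free DM1-SMe, 500 nM to 5 pM. Viability by CCK8 OD450, digitonin background subtracted, as % of untreated; IC50 from 10-point four-parameter fit. PRL (15 nM) co-incubation tested separately.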

T47D/hErbB2 cells = test: Cell viability (cell kill) assay; type: cell-based, human; details: T47D/ErbB2; Table 16
Source text: as §1, §2
The potency of anti-PRLR conjugated antibodies compared with a similarly conjugated antibody to the co-expressed ErbB2 cell surface target was also assessed. Both PRLR and ErbB2 are expressed in a majority of breast cancers, and anti-ErbB2 antibodies conjugated to DM1 have shown clinical efficacy in targeting ErbB2 (+) breast cancer (Hurvitz et al; 2013).

[3] = Conjugate characterization: protein and linker/payload concentrations, payload loading (UV, MALDI-TOF, SEC-HPLC, RP-HPLC); type: physicochemical; details: Anti-PRLR-SMCC-DM1 conjugates; Table 9
Outline: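 Anti-PRLR antibodies were conjugated to DM1 via an SMCC linker, then purified by size exclusion and sterile filtered. Protein and linker/payload concentrations came from UV and MALDI-TOF, and monomer content and free linker-payload from SEC-HPLC and RP-HPLC. Payload loading was determined by UV and by native-versus-conjugated mass difference, with yields based on protein.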

[4] = 293/PRLR, Table 11, read-out: IC50
[5] = T47D, Table 12, 3 days, read-out: IC50

B1: H1H6953N-DM1 (conjugate)
VH: EVQLLESGGGLVQPGGTLRLSCAASGFTFSAYAMSWVRQAPGKGLEWVSSINVRAGDTYYADSVKGRFTISRDNSKNTLFLLMNSLRAEDTAAYYCAKARYSSNWGFDFWGQGTLVTVSS
VL: DIVMTQSPDSLTVSLGARTTINCQSSQTILHSSNNHNYLAWYQQKPGLPPKLLIYWSSTRESGVPDRFSGSGSGTDFTLTISSLQAEDVAIYYCQQYSNTPYTFGQGTKLEIN
HEK293 (293) cells; 293, Table 11, 3 days
  IC50: 100 nM
HEK293 (293) cells; 293, Table 14
  IC50: 100 nM
[1]; 293/PRLR, Table 11
  % Kill: 95%
[1]; [4]
  IC50: 0.28 nM
[1]; 293/hPRLR cells (PRLR 18× above background), read-out: IC50, cell viability
  IC50: 0.43 nM
PC3 cells; Table 15
  % Kill: 80%
  IC50: 100 nM
PC3/hPRLR cells; PC3/PRLR, Table 11, 3 days
  % Kill: 67%
  IC50: 0.86 nM
PC3/hPRLR cells; PC3/PRLR, Table 15
  % Kill: 76%
  IC50: 0.68 nM
MCF7 (MCF7/ATCC) cells; MCF7, Table 12, 3 days
  % Kill: 55%
  IC50: 100 nM
MCF7 (MCF7/ATCC) cells; MCF7, Table 16
  IC50: 82 nM
[2]; Table 12, 3 days
  % Kill: 76%
  IC50: 0.29 nM
[2]; Table 17
  % Kill: 76%
  IC50: 0.33 nM
T47D cells; T47D cells (PRLR 12× above background), 3 days, read-out: IC50, cell viability
  IC50: 1.3 nM
T47D cells; T47D, Table 12, 3 days
  % Kill: 79%
T47D cells; [5]
  IC50: 1.64 nM
T47D/hErbB2 cells
  % Kill: 80%
  IC50: 2.4 nM
[3]
  Payload:Antibody Molar Ratio (MS): 2.7
  Payload:Antibody Molar Ratio (UV): 3.2

B2: H1H6958N2-DM1: anti-PRLR antibody H1H6958N2 conjugated to DM1 through an SMCC linker (conjugate)
VH: QVQLVESGGGVVQPGRSLRLSCGASGFTFRNYGMQWVRQGPGKGLEWVTLISFDGNDKYYADSVKGRFTISRDNSKNTLFLQMNSLRTEDTAVYYCARGGDFDYWGQGTLVTVSS
VL: DIQMTQSPSSLSASVGDRVTITCRASQDIRKDLGWYQQKPGKAPKRLIYAASSLHSGVPSRFSGSGSGTEFTLTISSLQPEDFATYYCLQHNSYPMYTFGQGTKLEIK
HEK293 (293) cells; 293, Table 19
  % Kill: 90%
  IC50: 100 nM
HEK293 (293) cells; HEK293, Table 13, without PRL
  % Kill: 88%
  IC50: 90 nM
[1]; 293/PRLR, Table 11
  % Kill: 95%
[1]; [4]
  IC50: 0.1 nM
PC3 cells; Table 11, 3 days
  % Kill: 83%
  IC50: 150 nM
PC3/hPRLR cells; PC3/PRLR, Table 11, 3 days
  % Kill: 83%
  IC50: 0.43 nM
PC3/hPRLR cells; PC3/hPRLR, Table 18
  % Kill: 79%
  IC50: 0.5 nM
MCF7 (MCF7/ATCC) cells; MCF7/ATCC, Table 18
  % Kill: 72%
  IC50: 90 nM
MCF7 (MCF7/ATCC) cells; MCF7/ATCC, Table 20
  % Kill: 70%
  IC50: 70 nM
MCF7 (MCF7/ATCC) cells; MCF7, Table 12, 3 days
  % Kill: 77%
  IC50: 100 nM
[2]; Table 12, 3 days
  % Kill: 77%
  IC50: 0.19 nM
[2]; Table 18
  % Kill: 83%
  IC50: 0.2 nM
[2]; Table 20
  % Kill: 80%
  IC50: 0.2 nM
T47D cells; T47D, Table 12, 3 days
  % Kill: 71%
T47D cells; [5]
  IC50: 1.34 nM
T47D cells; T47D, Table 13, + 15 nM PRL
  % Kill: 100%
T47D cells; T47D, Table 13, + 15 nM PRL, read-out: IC50
  IC50: 3 nM
T47D cells; T47D, Table 13, without PRL
  % Kill: 100%
T47D cells; T47D, Table 13, without PRL, read-out: IC50
  IC50: 1 nM
T47D cells; T47D, Table 19
  % Kill: 100%
T47D cells; T47D, Table 19, read-out: IC50
  IC50: 2 nM
[3]
  Payload:Antibody Molar Ratio (MS): 3.4
  Payload:Antibody Molar Ratio (UV): 4.0
